± gives the uncertainty stated by the source.
B1: Dystrobrevin alpha, residues 235 to 294; numbered along this chain, Q9Y4J8 (parent)
chain: ENVFHPVECSYCHSESMMGFRYRCQQCHNYQLCQDCFWRGHAGGSHSNQHQMKEYTSWKS

Variants of: B1
Assay: abundance fitness (aPCA) (normalised: wild type 0, dead -1); higher = more abundant; growth selection in yeast, the domain comes from the species named
Conditions: Homo sapiens

Abundance fitness, by site and new letter:
D35: Y 0.011 ± 0.1; H 0.001 ± 0.12; V -0.084 ± 0.081; N 0.069 ± 0.14; W -0.33 ± 0.1; R -0.089 ± 0.044; G -0.235 ± 0.17; P 0.025 ± 0.07; Q -0.204 ± 0.1; M -0.022 ± 0.094; F 0.197 ± 0.2; A -0.093 ± 0.074; I -0.113 ± 0.11; C -0.113 ± 0.12; S -0.033 ± 0.061
S47: G -0.22 ± 0.046; F -0.455 ± 0.12; C -0.103 ± 0.074; D 0.044 ± 0.056; E -0.028 ± 0.064; H -0.091 ± 0.15; A -0.349 ± 0.054
C36: F -0.994 ± 0.29; L -0.817 ± 0.16; G -0.596 ± 0.1; A -0.881 ± 0.14; Q -0.723 ± 0.26; P -0.565 ± 0.17; Y -0.734 ± 0.13; M -0.723 ± 0.47; D -0.624 ± 0.16; S -0.992 ± 0.16; I -0.733 ± 0.17; V -0.873 ± 0.19; W -0.94 ± 0.22; K -0.192 ± 0.15; R -0.695 ± 0.1
W38: F 0.099 ± 0.11; L 0.167 ± 0.083; A 0.305 ± 0.074; E 0.287 ± 0.07; H 0.014 ± 0.19; S 0.343 ± 0.059; V 0.13 ± 0.1; Q 0.228 ± 0.093; T 0.349 ± 0.077; P -0.146 ± 0.082; C 0.215 ± 0.066; R 0.364 ± 0.054; K 0.191 ± 0.13; M 0.37 ± 0.086; I 0.318 ± 0.12; D 0.288 ± 0.1; Y 0.214 ± 0.11; N 0.308 ± 0.15
L32: D -0.356 ± 0.32; A -0.656 ± 0.15; Y -0.38 ± 0.14; T 0.053 ± 0.21; V -0.102 ± 0.12; R -0.647 ± 0.12; C 0.038 ± 0.28; M -0.793 ± 0.19; E -0.395 ± 0.33; K -0.538 ± 0.18; S -0.308 ± 0.14; W -0.751 ± 0.26; G -0.511 ± 0.14; Q -0.455 ± 0.13
C27: Q -0.943 ± 0.18; W -0.838 ± 0.13; R -0.876 ± 0.066; M -0.814 ± 0.12; V -0.85 ± 0.066; T -0.877 ± 0.12; L -0.998 ± 0.14; P -0.578 ± 0.15; N -0.841 ± 0.19
C33: E -0.541 ± 0.093; L -0.874 ± 0.099; S -0.658 ± 0.086; K -0.983 ± 0.2; H -0.659 ± 0.28; M -0.823 ± 0.11; W -0.811 ± 0.14; R -0.675 ± 0.098; Y -0.954 ± 0.16; A -0.495 ± 0.089; G -0.78 ± 0.081; T -0.944 ± 0.15; Q -0.609 ± 0.1; D -0.894 ± 0.12; N -0.592 ± 0.14; F -0.625 ± 0.15; V -0.836 ± 0.088; I -0.884 ± 0.18
H46: Y -0.538 ± 0.12; Q -0.331 ± 0.13; D -0.2 ± 0.085; C -0.366 ± 0.11; G -0.165 ± 0.087; N -0.316 ± 0.14; A -0.186 ± 0.073; R -0.189 ± 0.076; K -0.117 ± 0.1; E -0.198 ± 0.081; L -0.419 ± 0.078; P -0.27 ± 0.093; I -0.366 ± 0.094; T -0.219 ± 0.073; W -0.427 ± 0.16; F -0.514 ± 0.14; M -0.17 ± 0.073; V -0.227 ± 0.076
Q31: L -0.153 ± 0.069; V 0.098 ± 0.07; N -0.202 ± 0.2; F 0.119 ± 0.15; E 0.112 ± 0.072; K -0.318 ± 0.13; R -0.318 ± 0.08; Y -0.034 ± 0.1; T 0.083 ± 0.077; A -0.085 ± 0.055; I -0.053 ± 0.089; S -0.007 ± 0.06; P -0.536 ± 0.11; D -0.012 ± 0.076; W 0.11 ± 0.12; C -0.151 ± 0.15
H28: L 0.002 ± 0.046; F -0.112 ± 0.065; G -0.1 ± 0.042; S 0.027 ± 0.051; A 0.145 ± 0.043; M -0.008 ± 0.064; V 0.06 ± 0.047; P 0.066 ± 0.078; R -0.002 ± 0.052; N 0.152 ± 0.076; C -0.093 ± 0.061; I 0.033 ± 0.062; W -0.16 ± 0.082; K 0.122 ± 0.063; D 0.209 ± 0.053; E 0.063 ± 0.06; T 0.1 ± 0.053
G40: V -0.266 ± 0.038; S -0.229 ± 0.065; T -0.366 ± 0.1; L -0.384 ± 0.056; W -0.352 ± 0.099; Q -0.281 ± 0.12; R -0.206 ± 0.065; K -0.045 ± 0.093; D -0.166 ± 0.14; N -0.138 ± 0.15; I -0.27 ± 0.09; M -0.404 ± 0.16; C -0.227 ± 0.11; E -0.284 ± 0.092; A -0.391 ± 0.1; F -0.193 ± 0.081
Q34: T -0.19 ± 0.17; F -0.394 ± 0.14; P -0.163 ± 0.16; Y -0.147 ± 0.12; R -0.047 ± 0.053; N -0.146 ± 0.11; H -0.156 ± 0.065; K 0.127 ± 0.16; M -0.302 ± 0.14; V -0.169 ± 0.13; E 0.044 ± 0.11; G -0.027 ± 0.11; D -0.267 ± 0.13; L -0.423 ± 0.092; A -0.053 ± 0.12; W -0.606 ± 0.15; S -0.087 ± 0.12
F37: S -0.278 ± 0.051; E -0.101 ± 0.074; Y -0.052 ± 0.17; W -0.051 ± 0.093; T -0.439 ± 0.075; M 0.081 ± 0.086; G -0.348 ± 0.063; A -0.043 ± 0.082; I -0.087 ± 0.31; R -0.098 ± 0.051; H -0.092 ± 0.18; V -0.045 ± 0.071; P -0.62 ± 0.13; L -0.232 ± 0.079; N -0.401 ± 0.17; D -0.488 ± 0.28; Q -0.003 ± 0.074; C -0.473 ± 0.17
H41: K 0.089 ± 0.085; M -0.014 ± 0.14; Y -0.127 ± 0.18; G -0.312 ± 0.076; S 0.037 ± 0.057; R 0.067 ± 0.047; N 0.063 ± 0.084; I -0.284 ± 0.1; C 0.013 ± 0.082; W -0.323 ± 0.093; P -0.192 ± 0.08; F -0.044 ± 0.077; E -0.09 ± 0.078; L -0.038 ± 0.061; D -0.296 ± 0.1; A 0.013 ± 0.082; Q 0.146 ± 0.12; V 0.122 ± 0.055
R39: G 0.011 ± 0.044; T -0.107 ± 0.048; M -0.072 ± 0.047; E 0.074 ± 0.048; W -0.282 ± 0.043; C -0.071 ± 0.053; S 0.062 ± 0.039; F -0.34 ± 0.058; K 0.228 ± 0.05; H 0.092 ± 0.062; I -0.308 ± 0.071; N 0.086 ± 0.063; P -0.495 ± 0.058; L -0.08 ± 0.032; D -0.083 ± 0.071; Y -0.099 ± 0.066; V -0.202 ± 0.047; A 0.142 ± 0.049; Q 0.116 ± 0.056
S45: N -0.13 ± 0.13; Q -0.121 ± 0.15; G 0.099 ± 0.045; I -0.394 ± 0.14; M -0.269 ± 0.11; W -0.287 ± 0.087; R -0.159 ± 0.046; D 0.163 ± 0.07; C 0.06 ± 0.068; K 0.031 ± 0.076; Y -0.605 ± 0.2; E 0.065 ± 0.067; L -0.163 ± 0.083; H -0.291 ± 0.14; P -0.043 ± 0.083; T 0.098 ± 0.07
G44: S -0.209 ± 0.096; F -1.15 ± 0.21; M -0.384 ± 0.14; P -0.523 ± 0.16; W -0.616 ± 0.19; T -0.26 ± 0.099; D 0.077 ± 0.15; E -0.303 ± 0.15; N -0.285 ± 0.14; I -0.719 ± 0.25; L -0.621 ± 0.094; Y -0.411 ± 0.19; K -0.177 ± 0.099; H -0.818 ± 0.26; V -0.234 ± 0.097; Q -0.841 ± 0.26; C -0.362 ± 0.11
N29: S -0.063 ± 0.051; G -0.058 ± 0.047; W -0.183 ± 0.064; R -0.171 ± 0.048; E -0.152 ± 0.09; H -0.075 ± 0.091; Y -0.204 ± 0.084; K -0.156 ± 0.08; D 0.052 ± 0.081; T -0.213 ± 0.065; L -0.125 ± 0.047; P -0.388 ± 0.063; M -0.044 ± 0.085; Q 0.1 ± 0.074; F 0.007 ± 0.062; V -0.281 ± 0.059; A -0.028 ± 0.07; C 0.186 ± 0.082
A42: Q -0.071 ± 0.1; R -0.032 ± 0.055; V 0.005 ± 0.062; L -0.285 ± 0.06; P -0.421 ± 0.092; I -0.372 ± 0.22; E 0.081 ± 0.072; D -0.253 ± 0.14; M -0.04 ± 0.086; H 0.05 ± 0.18; G -0.026 ± 0.055; Y -0.381 ± 0.21; T -0.054 ± 0.065; K -0.224 ± 0.091; W -0.29 ± 0.099; N -0.077 ± 0.11
Y30: K -0.519 ± 0.095; T -0.426 ± 0.094; C -0.554 ± 0.22; A -0.398 ± 0.093; W -0.458 ± 0.072; V -0.206 ± 0.059; R -0.301 ± 0.052; P -0.638 ± 0.079; G -0.553 ± 0.043; M -0.288 ± 0.09; S -0.478 ± 0.069; D -0.508 ± 0.1; L -0.36 ± 0.059; F -0.183 ± 0.1; E -0.378 ± 0.09; H -0.53 ± 0.11; Q -0.559 ± 0.085
G43: S 0.09 ± 0.063; T -0.139 ± 0.086; M -0.068 ± 0.15; F -0.542 ± 0.12; L -0.221 ± 0.064; A -0.325 ± 0.073; W -0.208 ± 0.13; N 0.121 ± 0.13; D 0.325 ± 0.1; P -0.765 ± 0.15; C -0.034 ± 0.081; I -0.685 ± 0.19; V -0.352 ± 0.073; E 0.087 ± 0.065; H -0.09 ± 0.15
